From PMC6254359 come the findings set out here.

Sequences and labels used below:
B1: Trim5α from Rhesus macaque, Bbox coiled-coil regions, residues 88–296 with the mutation [Rhesus macaque] / LC3C [not stated] (parent)
chain 1: PEEGQKVDHCARHGEKLLLFCQEDSKVICWLCKDSQEHRGHHTFLMEEVAQEYHVKLQTALEMLRQKQQEAEKLEADIREEKASWKIQIDYDKTNVSADFEQLREILDWEESNELQNLEKEEEDILKSLTKSETEMVQQTQYMRELISELEHRLQGSMMDLLQGVDGIIKRIENMTLKKPKTFHKNQRRVFRAPDLKGMLDMFRELTDA
chain 2: MPPPQKIPSVRPFKQRKSLAIRQEEVAGIRAKFPNKIPVVVERYPRETFLPPLDKTKFLVPQELTMTQFLSIIRSRMVLRATEAFYLLVNNKSLVSMSATMAEIYRDYKDEDGFVYMTYASQETFG
B2: Trim5α from Rhesus macaque, Bbox coiled-coil regions, residues 88–296 with the mutation [Rhesus macaque] / GABARAP [not stated] (parent)
chain 1: B1 chain 1
chain 2: MKFVYKEEHPFEKRRSEGEKIRKKYPDRVPVIVEKAPKARIGDLDKKKYLVPSDLTVGQFYFLIRKRIHLRAEDALFFFVNNVIPPTSATMGQLYQEHHEEDFFLYIAYSDESVYGL
B3: Trim5α from Rhesus macaque, Bbox coiled-coil regions, residues 88–296 with the mutation [Rhesus macaque] / GABARAPL1 [not stated] (parent)
chain 1: B1 chain 1
chain 2: not shown

One assay covers variants of B1. Briefly: SV-AUC c(s) analysis. The following applies: with LC3C; 20 μm equimolar concentration; read off a plot.
Consider chain 1 PEEGQKVDHCARHGEKLLLFCQEDSKVICWLCKDSQEHRGHHTFLMEEVAQEYHVKLQTALEMLRQKQQEAEKLEADIREEKASWKIQIDYDKTNVSADFEQLREILDAEESNELQNLEKEEEDILKSLTKSETEMVQQTQYMRELISELEHRLQGSMMDLLQGVDGIIKRIENMTLKKPKTFHKNQRRVFRAPDLKGMLDMFRELTDA [chain 1 W109A], for which the screen value amounted to 2.7 S.

In a further assay the parent is B2. The assay can be described thus: SV-AUC c(s) analysis. The conditions noted are these: with GABARAP; 20 μm equimolar concentration; read off a plot.
chain 1 W109A: the screen value is 2.8 S.

A further assay covers variants of B3. The assay can be described thus: SV-AUC c(s) analysis. The following applies: with GABARAPL1; equal concentration of 20 μm; read off a plot.
As to chain 1 S112A, the screen value was 3 S.

Consider chain 1 E110A, for which the screen value worked out at 3 S.

For the variant chain 1 E119K, the screen value was found to be 2.9 S.

On to chain 1 E119A, for which the screen value was found to be 3 S.

For chain 1 E105A, the screen value is 2.9 S.

Regarding chain 1 E105K, the screen value is 2.8 S.

In the case of chain 1 E111K, the screen value came out at 2.9 S.

chain 1 Q116A: the screen value turned out to be 3 S.

For chain 1 Q102A, the screen value was determined as 3.1 S.

Staying with this assay, now noted: with autophagy-related protein LC3 B (LC3B), equal concentration of 20 μm, read off a plot.
chain 1 S112A: the screen value is 3 S.

As for chain 1 E110A, the screen value was determined as 2.8 S.

With chain 1 E119K, the screen value was 2.8 S.

Take chain 1 E119A: the screen value amounted to 2.8 S.

In the case of chain 1 E105A, the screen value was 2.8 S.

Turning to chain 1 E105K, the screen value is 2.7 S.

As to chain 1 E111K, the screen value stood at 2.8 S.

In the case of chain 1 Q116A, the screen value was 3 S.

Turning to chain 1 Q102A, the screen value turned out to be 2.9 S.

Staying with this assay, now noted: with GABARAPL1; 20 μm equimolar concentration; read off a plot.
chain 1 W109A: the screen value was 2.8 S.

The assay is the same for the next values; noted with them: with autophagy-related protein LC3 B (LC3B), 20 μm equimolar concentration, read off a plot.
For the variant chain 1 W109A, the screen value came out at 2.7 S.
